Results published in US20060078953.

Tested on: histone H4 methylated at arginine 3

For “commercially available skeletal muscle PAD”, the “Western blot staining with antibodies to methylated arginine 3 H4 after PAD treatment” value was “A complete loss of staining with antibodies to this modification was observed following PAD treatment”.
